This is an account of results in article PMC4102245, “A molecular model for the role of SYCP3 in meiotic chromosome organisation” (eLife, 2014).

Series [1] addresses SYCP3_(ΔCt6) (human SYCP3 amino acids 1–230) (human) (UniProt Q8IZU3). The experiment in a line: SEC-MALS; Superdex 200 Increase 10/300 GL, 20 mM Tris pH 8.0, 500 mM KCl; oligomer size of the eluted peak. (In general: Size exclusion chromatography separates by hydrodynamic size, large species first.)
The target of series [2] is SYCP3_(ΔNt6) (full length human SYCP3 with 69-EVQNML-74 mutated to alanines) (human) (UniProt Q8IZU3). The series is described as above.
Series [3] deals with the molecule itself. The description is as above.
Series [4] concerns the molecule itself. As to the kind of experiment: SEC-MALS; Superdex 200 10/300 GL, 100 μl of 2–3 mg/ml, 20 mM Tris pH 8.0, 500 mM KCl, 25°C; oligomer size of the eluted peak.
Series [5] deals with the molecule itself. As to the kind of experiment: SEC-MALS; Superdex 200 10/300 GL, 100 μl of 2–3 mg/ml, 20 mM Tris pH 8.0, 150 mM KCl, 25°C; oligomer size of the eluted peak.
In the next series the target is T1, SYCP3 dCt6 WT (human, UniProt Q8IZU3 1-230).
T1 sequence: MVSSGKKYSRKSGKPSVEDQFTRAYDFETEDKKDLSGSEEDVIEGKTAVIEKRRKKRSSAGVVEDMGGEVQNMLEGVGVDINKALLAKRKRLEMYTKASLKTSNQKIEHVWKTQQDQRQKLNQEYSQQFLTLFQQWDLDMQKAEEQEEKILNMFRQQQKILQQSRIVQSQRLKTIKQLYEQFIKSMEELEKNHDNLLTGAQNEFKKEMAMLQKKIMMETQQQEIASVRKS
The experiment in a line: fluorescence anisotropy; Kd per SYCP3 tetramer; 20 mM Tris pH 8.0, 150 mM KCl; FA at 25 C with 25 nM DNA (0-20 uM protein); EMSA 5 min at 4 C with 18.7 uM (per bp) DNA (0-40 uM protein), 0.5% agarose, 0.5x TBE. Particulars: protein: recombinant; tags: N-terminal His6, TEV-cleaved; chain copies: 4; label: 5' FAM. Background: In fluorescence polarisation assays a small probe gives low polarisation when free and higher when bound to something large.

Broadly, the stoichiometry N is the number of molecules, sites or subunits per partner or assembly. “SYCP3_(ΔCt6) (human SYCP3 amino acids 1–230) (from UniProt Q8IZU3 1-230) (domain or fragment)” registered a stoichiometry N in series [1] of 4. Turning to “SYCP3_(ΔNt6) (full length human SYCP3 with 69-EVQNML-74 mutated to alanines) (from UniProt Q8IZU3 1-236)”, the stoichiometry N in series [2] was 4.

B1: SYCP3_(ΔCt6) ΔBP1 (amino acids 1–230, BP1 52-KRRKKR-57 mutated to alanines) (domain or fragment, human, UniProt Q8IZU3 1-230, looked up)
chain: MVSSGKKYSRKSGKPSVEDQFTRAYDFETEDKKDLSGSEEDVIEGKTAVIEAAAAAASSAGVVEDMGGEVQNMLEGVGVDINKALLAKRKRLEMYTKASLKTSNQKIEHVWKTQQDQRQKLNQEYSQQFLTLFQQWDLDMQKAEEQEEKILNMFRQQQKILQQSRIVQSQRLKTIKQLYEQFIKSMEELEKNHDNLLTGAQNEFKKEMAMLQKKIMMETQQQEIASVRKS
notes: Synaptonemal complex protein 3 (SYCP3), human, Swissprot Q8IZU3, amino acids 1-230 with basic patch 1 mutated to alanines; source: E. coli BL21(DE3) Rosetta2, purified as described for wild type SYCP3_(ΔCt6); not shown: His6, N-terminal, cleaved
On to B1, for which, in series [3], the “stoichiometry N” value is 4.

B2: SYCP3_(ΔCt6) ΔBP2 (amino acids 1–230, BP2 88-KRKR-91 mutated to alanines) (domain or fragment, human, UniProt Q8IZU3 1-230, looked up)
chain: MVSSGKKYSRKSGKPSVEDQFTRAYDFETEDKKDLSGSEEDVIEGKTAVIEKRRKKRSSAGVVEDMGGEVQNMLEGVGVDINKALLAAAAALEMYTKASLKTSNQKIEHVWKTQQDQRQKLNQEYSQQFLTLFQQWDLDMQKAEEQEEKILNMFRQQQKILQQSRIVQSQRLKTIKQLYEQFIKSMEELEKNHDNLLTGAQNEFKKEMAMLQKKIMMETQQQEIASVRKS
notes: Synaptonemal complex protein 3 (SYCP3), human, Swissprot Q8IZU3, amino acids 1-230 with basic patch 2 mutated to alanines; source: E. coli BL21(DE3) Rosetta2, purified as described for wild type SYCP3_(ΔCt6); not shown: His6, N-terminal, cleaved
As to B2, in series [3], the “stoichiometry N” value turned out to be 4.

B3: SYCP3_(ΔCt6) ΔBP1+2 (amino acids 1–230, BP1 and BP2 mutated to alanines) (domain or fragment, human, UniProt Q8IZU3 1-230, looked up)
chain: MVSSGKKYSRKSGKPSVEDQFTRAYDFETEDKKDLSGSEEDVIEGKTAVIEAAAAAASSAGVVEDMGGEVQNMLEGVGVDINKALLAAAAALEMYTKASLKTSNQKIEHVWKTQQDQRQKLNQEYSQQFLTLFQQWDLDMQKAEEQEEKILNMFRQQQKILQQSRIVQSQRLKTIKQLYEQFIKSMEELEKNHDNLLTGAQNEFKKEMAMLQKKIMMETQQQEIASVRKS
notes: Synaptonemal complex protein 3 (SYCP3), human, Swissprot Q8IZU3, amino acids 1-230 with both basic patches mutated to alanines; source: E. coli BL21(DE3) Rosetta2, purified as described for wild type SYCP3_(ΔCt6); not shown: His6, N-terminal, cleaved
For B3, the “stoichiometry N” value in series [3] was determined as 4.

B4: SYCP3FL (full length human SYCP3, amino acids 1–236) (natural protein, UniProt Q8IZU3 1-236, looked up)
chain: MVSSGKKYSRKSGKPSVEDQFTRAYDFETEDKKDLSGSEEDVIEGKTAVIEKRRKKRSSAGVVEDMGGEVQNMLEGVGVDINKALLAKRKRLEMYTKASLKTSNQKIEHVWKTQQDQRQKLNQEYSQQFLTLFQQWDLDMQKAEEQEEKILNMFRQQQKILQQSRIVQSQRLKTIKQLYEQFIKSMEELEKNHDNLLTGAQNEFKKEMAMLQKKIMMETQQQEIASVRKSLQSMLF
notes: Synaptonemal complex protein 3 (SYCP3), human, Swissprot Q8IZU3, amino acids 1-236 (full length); The methods tell no TEV cleavage for SYCP3FL (only Ni-NTA and buffer exchange), so the His6 tag may have been kept; the printed theoretical tetramer size is 111 kDa; also called full length SYCP3; source: E. coli BL21(DE3) Rosetta2, purified (Ni-NTA, buffer exchange into 20 mM Tris pH 8.0, 500 mM KCl)
As to B4, the “stoichiometry N” value in series [4] was determined as 4.

B5: SYCP3_(Core) (human SYCP3 amino acids 66–230) (domain or fragment, UniProt Q8IZU3 66-230, looked up)
chain: MGGEVQNMLEGVGVDINKALLAKRKRLEMYTKASLKTSNQKIEHVWKTQQDQRQKLNQEYSQQFLTLFQQWDLDMQKAEEQEEKILNMFRQQQKILQQSRIVQSQRLKTIKQLYEQFIKSMEELEKNHDNLLTGAQNEFKKEMAMLQKKIMMETQQQEIASVRKS
notes: Synaptonemal complex protein 3 (SYCP3), human, Swissprot Q8IZU3, amino acids 66-230; Cloned in pHAT4 with an N-terminal TEV-cleavable His6 tag; homotetramer by SEC-MALS, AUC and crystal structure; also called SYCP_(Core); not shown: His6, N-terminal, cleaved
For B5, in series [5], the “stoichiometry N” value is 4.

B6: 60 bp FAM-dsDNA (dsDNA)
DNA 1: ATGGTGTGTGTAGGTTAATGTGAGGAGGAGAGGTGAAGAAGGAGGAGAGAAGAAGGAGGC
DNA 2: GCCTCCTTCTTCTCTCCTCCTTCTTCACCTCTCCTCCTCACATTAACCTACACACACCAT
The Kd is a measure of binding affinity in units of concentration. B6: in the series with SYCP3 dCt6 WT, the Kd turned out to be 200 nM.
